We go through two molecules from patent publication US20250333503A1 (COMPUGEN, published 2025).

For assay [1], the target named is T1, mouse PVRIG on HEK293 over-expressing cells (mouse).
T1 construct: whole, on cells; also called HEK293 OX mouse PVRIG; mouse PVRIG-FLAG
Kind of assay: FACS, 60 µg/ml on HEK293 OX mouse PVRIG; one of two sources. For orientation: A flow cytometer gives signals particle by particle.

The target of assay [2] is T2, human PVRIG (Poliovirus Receptor Related Immunoglobulin Domain Containing Protein) (human, UniProt Q6DKI7 41-326).
T2 construct: whole, on cells; on HEK293 over-expressing cells (some pools flag-tagged), Jurkat, CA46 or primary T cells; also called hPVRIG; C7orf15
T2 sequence (looked up): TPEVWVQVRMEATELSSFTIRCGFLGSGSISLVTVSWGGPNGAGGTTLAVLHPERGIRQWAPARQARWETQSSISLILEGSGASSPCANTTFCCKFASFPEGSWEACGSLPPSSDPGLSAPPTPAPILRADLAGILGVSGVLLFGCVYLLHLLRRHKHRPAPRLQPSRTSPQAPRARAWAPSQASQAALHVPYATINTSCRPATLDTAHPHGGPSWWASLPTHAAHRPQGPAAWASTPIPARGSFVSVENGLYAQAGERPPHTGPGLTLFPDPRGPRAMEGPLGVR
Kind of assay: flow cytometry equilibrium titration on HEK 293 cells expressing human PVRIG, 1:1 fit.

The target in assay [3] is T2, human PVRIG (Poliovirus Receptor …). In words: FACS on Jurkat cells transfected with scrambled siRNA.
Assay [4] has the same target. In words: FACS on Jurkat cells after PVRIG siRNA knock down.

B1: mouse PVRL2-his (ligand, UniProt P32507 32-351, looked up)
chain: QDVRVRVLPEVRGRLGGTVELPCHLLPPTTERVSQVTWQRLDGTVVAAFHPSFGVDFPNSQFSKDRLSFVRARPETNADLRDATLAFRGLRVEDEGNYTCEFATFPNGTRRGVTWLRVIAQPENHAEAQEVTIGPQSVAVARCVSTGGRPPARITWISSLGGEAKDTQEPGIQAGTVTIISRYSLVPVGRADGVKVTCRVEHESFEEPILLPVTLSVRYPPEVSISGYDDNWYLGRSEAILTCDVRSNPEPTDYDWSTTSGVFPASAVAQGSQLLVHSVDRMVNTTFICTATNAVGTGRAEQVILVRESPSTAGAGATGG
notes: also called His-tagged PVRL2; his-tagged mouse PVLR2
As for B1, the “fold binding vs empty vector cells” value in assay [1] turned out to be 2 fold.

B2: CPA.7.021 IgG conjugated with Alexa 647 (antibody, V domains shown)
VH: EVQLVESGGGVVKPGGSLRLSCAASGFTFGTSSMNWVRQAPGKGLEWVAVISFDGTEIHYADSVKGRFTISRDNSKSTVFLQMNSLRPDDTALYYCAKGSGNIYFYSGMDVWGQGTTVTVSS
VL: DIQMTQSPSTLSASVGDRVTITCRAGQSISGWLAWFQQKPGKAPNLLIYETSTLESGVPSRFSGSGSGTEYTLTISSLQPDDFATYYCQQYYSYPLTFGQGTKVEIK
On to B2, for which, in assay [2], the Kd (as a rule, the free concentration of one partner at which half of the binding sites on the other are occupied at equilibrium, for simple one-to-one binding) was 2.5 nM. Also, the “fold change (anti PVRIG vs isotype control)” value in assay [3] is 15.3 fold; in assay [4], 2.8 fold.
